Reference: publication PMC8660880

Target: mS105 (Chlamydomonas reinhardtii (endogenous in strain CC-4351))
Experiment: cryo-EM structure; single-particle reconstruction of the native small subunit (SSU) of the C. reinhardtii mitoribosome isolated from purified mitochondria; Monosome buffer; 5.49 A, focused refinement 4.19 A (body) and 4.47 A (head)

- stoichiometry N: 3
Substance: mS105 (natural protein)
